Molecular target: iRFP (Rhodopseudomonas palustris)
Assay: SEC

stoichiometry N: 1.92 fold
Substance: iRFP
